The record followed here is IntAct's records for PubMed 10861283.

B1: Merlin (Homo sapiens), P35240-3 (parent)
chain: MAGAIASRMSFSSLKRKQPKTFTVRIVTMDAEMEFNCEMKWKGKDLFDLVCRTLGLRETWFFGLQYTIKDTVAWLKMDKKVLDHDVSKEEPVTFHFLAKFYPENAEEELVQEITQHLFFLQVKKQILDEKIYCPPEASVLLASYAVQAKYGDYDPSVHKRGFLAQEELLPKRVINLYQMTPEMWEERITAWYAEHRGRARDEAEMEYLKIAQDLEMYGVNYFAIRNKKGTELLLGVDALGLHIYDPENRLTPKISFPWNEIRNISYSDKEFTIKPLDKKIDVFKFNSSKLRVNKLILQLCIGNHDLFMRRRKADSLEVQQMKAQAREEKARKQMERQRLAREKQMREEAERTRDELERRLLQMKEEATMANEALMRSEETADLLAEKAQITEEEAKLLAQKAAEAEQEMQRIKATAIRTEEEKRLMEQKVLEAEVLALKMAEESERRAKEADQLKQDLQEAREAERRAKQKLLEIATKPTYPPMNPIPAPLPPDIPSFNLIGDSLSFDFKDTDMKRLSMEIEKEKVEYMEKSKHLQEQLNELKTEIEALKLKERETALDILHNENSDRGGSSKHNTIKKPQAQGRRPICI

In the test “HGS, O14964-1” the parent is B1. The settings on record: with HGS.
The test “HGS, O14964-2” covers variants of B1. The settings on record: with HGS.

Chain of HGS, O14964-1 (O14964 whole entry): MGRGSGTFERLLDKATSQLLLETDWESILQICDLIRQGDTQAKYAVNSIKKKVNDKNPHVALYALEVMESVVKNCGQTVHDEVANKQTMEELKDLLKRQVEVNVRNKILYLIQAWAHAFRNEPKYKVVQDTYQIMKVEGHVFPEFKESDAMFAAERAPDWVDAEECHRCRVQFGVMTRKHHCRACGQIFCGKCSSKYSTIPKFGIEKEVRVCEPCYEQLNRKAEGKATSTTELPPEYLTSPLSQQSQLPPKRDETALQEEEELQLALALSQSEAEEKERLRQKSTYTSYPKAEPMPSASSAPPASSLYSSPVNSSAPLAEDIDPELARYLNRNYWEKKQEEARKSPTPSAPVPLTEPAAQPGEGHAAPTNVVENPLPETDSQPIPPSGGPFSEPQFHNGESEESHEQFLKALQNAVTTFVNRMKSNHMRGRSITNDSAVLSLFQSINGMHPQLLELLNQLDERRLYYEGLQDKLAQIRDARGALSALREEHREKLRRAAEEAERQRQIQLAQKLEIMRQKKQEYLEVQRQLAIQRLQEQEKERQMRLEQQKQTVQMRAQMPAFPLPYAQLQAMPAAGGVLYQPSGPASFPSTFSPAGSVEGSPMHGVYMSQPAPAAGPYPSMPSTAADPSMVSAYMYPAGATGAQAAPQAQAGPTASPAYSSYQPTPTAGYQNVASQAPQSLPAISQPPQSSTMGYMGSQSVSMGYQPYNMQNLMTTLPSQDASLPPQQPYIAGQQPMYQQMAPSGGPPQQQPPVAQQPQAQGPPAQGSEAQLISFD
Chain of HGS, O14964-2 (O14964 other isoform, or with tags, fused parts or gaps): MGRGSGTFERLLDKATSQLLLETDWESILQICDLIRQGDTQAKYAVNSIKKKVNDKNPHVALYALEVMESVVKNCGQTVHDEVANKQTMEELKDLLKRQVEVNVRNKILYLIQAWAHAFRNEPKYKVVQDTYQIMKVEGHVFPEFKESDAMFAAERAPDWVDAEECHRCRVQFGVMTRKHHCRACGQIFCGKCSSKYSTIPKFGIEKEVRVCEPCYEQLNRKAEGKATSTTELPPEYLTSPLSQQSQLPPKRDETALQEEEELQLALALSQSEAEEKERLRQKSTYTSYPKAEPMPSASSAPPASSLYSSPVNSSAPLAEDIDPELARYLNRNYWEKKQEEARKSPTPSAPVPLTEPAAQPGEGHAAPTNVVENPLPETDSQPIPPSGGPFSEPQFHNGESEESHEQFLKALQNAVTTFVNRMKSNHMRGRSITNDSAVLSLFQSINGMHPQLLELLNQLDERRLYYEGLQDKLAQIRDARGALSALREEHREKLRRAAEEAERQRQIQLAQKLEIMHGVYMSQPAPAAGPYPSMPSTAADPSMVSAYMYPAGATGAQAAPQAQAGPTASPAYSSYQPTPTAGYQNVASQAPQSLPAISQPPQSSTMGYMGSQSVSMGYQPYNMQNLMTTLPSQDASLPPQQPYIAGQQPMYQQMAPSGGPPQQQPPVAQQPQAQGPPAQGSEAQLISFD

As for MAGAIASRMSFSSLKRKQPKTFTVRIVTMDAEMEFNCEMKWKGKDLFDLVCRTLGLRETWFFGLQYTIKDTVAWLKMDKKVLDHDVSKEEPVTFHFLAKFYPENAEEELVQEITQHLFFLQVKKQILDEKIYCPPEASVLLASYAVQAKYGDYDPSVHKRGFLAQEELLPKRVINLYQMTPEMWEERITAWYAEHRGRARDEAEMEYLKIAQDLEMYGVNYFAIRNKKGTELLLGVDALGLHIYDPENRLTPKISFPWNEIRNISYSDKEFTIKPLDKKIDVFKFNSSKLRVNKLILQLCIGNHDLFMRRRKADSLEVQQMKAQAREEKARKQMERQRLAREKQMREEAERTRDELERRLLQMKEEATMANEALMRSEETADLLAEKAQITEEEAKLLAQKAAEAEQEMQRIKATAIRTEEEKRLMEQKVLEAEVLALKMAEESERRAKEADQLKQDLQEAREAERRAKQKLLEIATKPTYPPMNPIPAPLPPDIPSFNLIGDSLSFDFKDTDMKRLSMEIEKEKVEYMEKSKHPQEQLNELKTEIEALKLKERETALDILHNENSDRGGSSKHNTIKKPQAQGRRPICI [L535P], the “effect of a mutation on the interaction” value with HGS, O14964-1 is “decreasing interaction strength”; with HGS, O14964-2, “decreasing interaction strength”.
Take MAGAIASRMSFSSLKRKQPKTFTVRIVTMDAEMEFNCEMKWKGKDLFDLVCRTLGLRETWFFGLQYTIKDTVAWLKMDKKVLDHDVSKEEPVTFHFLAKFYPENAEEELVQEITQHLFFLQVKKQILDEKIYCPPEASVLLASYAVQAKYGDYDPSVHKRGFLAQEELLPKRVINLYQMTPEMWEERITAWYAEHRGRARDEAEMEYLKIAQDLEMYGVNYFAIRNKKGTELLLGVDALGLHIYDPENRLTPKISFPWNEIRNISYSDKEFTIKPLDKKIDVFKFNSSKLRVNKLILQLCIGNHDLFMRRRKADSLEVQQMKAQAREEKARKQMERQRLAREKQMREEAERTRDELERRLLQMKEEATMANEALMRSEETADLLAEKAQITEEEAKLLAQKAAEAEQEMQRIKATAIRTEEEKRLMEQKVLEAEVLALKMAEESERRAKEADQLKQDLQEAREAERRAKQKLLEIATKPTYPPMNPIPAPLPPDIPSFNLIGDSLSFDFKDTDMKRLSMEIEKEKVEYMEKSKHLQEPLNELKTEIEALKLKERETALDILHNENSDRGGSSKHNTIKKPQAQGRRPICI [Q538P]: the “effect of a mutation on the interaction” value with HGS, O14964-1 is reported as “decreasing interaction strength”; in the test with HGS, O14964-2, “decreasing interaction strength”.
Take MAGAIASRMSFSSLKRKQPKTFTVRIVTMDAEMEFNCEMKWKGKDRFDLVCRTLGLRETWFFGLQYTIKDTVAWLKMDKKVLDHDVSKEEPVTFHFLAKFYPENAEEELVQEITQHLFFLQVKKQILDEKIYCPPEASVLLASYAVQAKYGDYDPSVHKRGFLAQEELLPKRVINLYQMTPEMWEERITAWYAEHRGRARDEAEMEYLKIAQDLEMYGVNYFAIRNKKGTELLLGVDALGLHIYDPENRLTPKISFPWNEIRNISYSDKEFTIKPLDKKIDVFKFNSSKLRVNKLILQLCIGNHDLFMRRRKADSLEVQQMKAQAREEKARKQMERQRLAREKQMREEAERTRDELERRLLQMKEEATMANEALMRSEETADLLAEKAQITEEEAKLLAQKAAEAEQEMQRIKATAIRTEEEKRLMEQKVLEAEVLALKMAEESERRAKEADQLKQDLQEAREAERRAKQKLLEIATKPTYPPMNPIPAPLPPDIPSFNLIGDSLSFDFKDTDMKRLSMEIEKEKVEYMEKSKHLQEQLNELKTEIEALKLKERETALDILHNENSDRGGSSKHNTIKKPQAQGRRPICI [L46R]: the “effect of a mutation on the interaction” value with HGS, O14964-1 is on record as “decreasing interaction strength”; in the test with HGS, O14964-2 it was “decreasing interaction strength”.
As to MAGAIASRMSFSSLKRKQPKTFTVRIVTMDAEMEFNCEMKWKGKDLFDLVCRTLGLRETWFFGLQYTIKDTVAWLKMDKKVLDHDVSKEEPVTFHFLAKFYPENAEEELVQEITQHLFFLQVKKQILDEKIYCPPEASVLLASYAVQAKYGDYDPSVHKRGFLAQEELLPKRVINLYQMTPEMWEERITAWYAEHRGRARDEAEMEYLKIAQDLEMYGVNYFAIRNKKGTELLLGVDALGLHIYDPENRLTPKISFPWNEIRNISYSDKEFTIKPLDKKIDVFKFNSSKLRVNKLILQLCIGNHDLFMRRRKADSLEVQQMKAQAREEKARKQMERQRLAREKQMREEAERTRDELERRPLQMKEEATMANEALMRSEETADLLAEKAQITEEEAKLLAQKAAEAEQEMQRIKATAIRTEEEKRLMEQKVLEAEVLALKMAEESERRAKEADQLKQDLQEAREAERRAKQKLLEIATKPTYPPMNPIPAPLPPDIPSFNLIGDSLSFDFKDTDMKRLSMEIEKEKVEYMEKSKHLQEQLNELKTEIEALKLKERETALDILHNENSDRGGSSKHNTIKKPQAQGRRPICI [L360P], the “effect of a mutation on the interaction” value with HGS, O14964-1 is “decreasing interaction strength”; in the test with HGS, O14964-2, “decreasing interaction strength”.
